Measurements published in paper PMC12489471, “A multi-dentate, cooperative interaction between endo- and exo-ribonucleases within the bacterial RNA degradosome” (Nucleic Acids Research, 2025).
Entries after “also recorded” stand apart in the source; their conditions may differ. Read-outs that look alike come from different tables or passages of the source.

Biological target: T1, PNPase (Escherichia coli, UniProt P05055)
T1 construct: made in house; host or cells: E. coli Evo21(DE3)
T1 sequence (P05055 whole entry, looked up): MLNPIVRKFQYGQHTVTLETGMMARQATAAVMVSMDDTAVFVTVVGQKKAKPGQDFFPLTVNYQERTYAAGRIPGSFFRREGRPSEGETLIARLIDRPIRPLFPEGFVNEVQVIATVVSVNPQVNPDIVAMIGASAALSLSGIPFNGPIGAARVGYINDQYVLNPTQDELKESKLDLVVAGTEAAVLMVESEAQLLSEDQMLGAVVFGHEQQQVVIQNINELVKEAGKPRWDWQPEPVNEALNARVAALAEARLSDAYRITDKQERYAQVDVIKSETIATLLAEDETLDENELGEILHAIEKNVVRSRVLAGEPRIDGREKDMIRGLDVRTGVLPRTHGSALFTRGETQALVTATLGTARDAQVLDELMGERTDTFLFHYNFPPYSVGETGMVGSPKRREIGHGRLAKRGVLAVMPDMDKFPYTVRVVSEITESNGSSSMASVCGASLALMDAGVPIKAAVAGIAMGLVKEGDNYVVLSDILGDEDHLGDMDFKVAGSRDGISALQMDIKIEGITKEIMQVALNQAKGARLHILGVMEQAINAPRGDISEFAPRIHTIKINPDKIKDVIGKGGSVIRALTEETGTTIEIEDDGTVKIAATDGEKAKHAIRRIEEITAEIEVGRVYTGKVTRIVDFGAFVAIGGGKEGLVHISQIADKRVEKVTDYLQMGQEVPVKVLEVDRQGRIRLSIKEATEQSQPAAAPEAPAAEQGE
Format: binding, E. coli
Settings: for Kd (dissociation rate constant, point mutants and wildtype): HEPES pH 7.2, 0, 12.5, 25 and 50 nM (point mutants), dissociation 120 s, duplicates
From the text: Briefly, at the N-terminal of the construct, there is an Hisx6 affinity tag that will be used for affinity purification. Following the Hisx6 tag there is an maltose-binding protein (MBP) tag with a TEV cleavage site to maintain solubility of the peptides. Following the MBP tag the gene encoding the peptide is inserted, and is then followed by intein, a self-cleavable tag, followed by a choline-binding domain, which can be used for an extra step of affinity purification. […] After expression, cells were harvested, resuspended in Lysis Buffer 2 (20 mM Tris–HCl, pH 8.0, 80 mM KCl, 300 mM NaCl, 20 mM Imidazole, 0.5 mM TCEP), and lysed with a cell disruptor (Emulsiflex, Avestin). […] After subsequent rounds of washing with Ni Equilibration Buffer supplemented with, respectively, 0.1% Triton-X, 1 M NaCl, and a final wash in Ni Equilibration Buffer, samples were eluted with Ni Elution Buffer (20 mM Tris–HCl, pH 8.0, 300 mM NaCl, 300 mM imidazole, 0.5 mM TCEP). Enriched fractions were then supplemented with 100 mM β-mercaptoethanol to catalyse intein self-cleavage overnight at room temperature. Treated samples were filtered and loaded on an amylose gravity flow column, equilibrated with Amy Equilibration Buffer (20 mM Tris–HCl, pH 8.0, 20 mM NaCl, 20 mM imidazole, 2 mM β-mercaptoethanol) and after washing, His-tagged TEV protease was applied to the resin and incubated at 4°C for 2 h.
PNPase carrying a C-terminal Hisx6 tag was expressed from pExp-cis-Ec_PNP-CHis vector in E. coli Evo21(DE3) cells, induced with 0.4 mM IPTG, at 18°C overnight. After expression, cells were harvested and resuspended in Lysis Buffer 2 (20 mM Tris–HCl, pH 8.0, 80 mM KCl, 300 mM NaCl, 20 mM imidazole, 0.5 mM TCEP), and lysed with a cell disruptor (Emulsiflex, Avestin). […] After subsequent rounds of washing with equilibration buffer supplemented with 0.1% Triton-X, or 1 M NaCl, the sample was eluted with Ni PNPCHis Elution Buffer (20 mM NaH2PO4, pH 8.0, 300 mM NaCl, 300 mM KCl, 5 mM MgCl2, 300 mM imidazole, pH 7.5, 10 mM β-mercaptoethanol). […] Fractions containing PNPase were run through a HiPrep™ 26/10 Desalting Column (GE Healthcare) and buffer exchanged to Q PNPCHis A (20 mM NaH2PO4, pH 8.0, 30 mM NaCl, 10% glycerol, 0.5 mM TCEP).
Interaction measurements were made using a Biacore T200 instrument (GE) at 25°C. PNPase with a 6xHisTag at the CTD was immobilized on a Series S Sensor Chip NTA (Cytiva) to provide a signal of 5 response units (RU). […] For the SPR analysis of the point mutants, binding to PNPase was measured at four different concentrations (0, 12.5, 25, and 50 nM). All concentrations were run in duplicates. The contact time was 60 s, while the dissociation time was 120 s, at a […] flow rate. […] The chip surface was regenerated with 350 mM EDTA in water, following manufacturer's instructions. Data were processed using the manufacturer’s BIAevaluation software.

[1] = SPR, 25°C, immobilized PNPase C-His, contact 120 s
[2] = SPR, mutant vs wildtype RNase E 960–1061

B1: RNase E 960–1039: RNase E peptide carrying the plausible secondary binding motif β2 (peptide)
chain: VVETAEVVVAEPEVVAQPAAPVVAEVAAEVETVAAVEPEVTVEHNHATAPMTRAPAPEYVPEAPRHSDWQRPTFAFEGKG
modifications: left off: His6, N-terminal, cleaved | MBP, N-terminal, cleaved | intein, C-terminal, cleaved | choline-binding domain, C-terminal, cleaved
- binding to PNPase (detected or not) (pH 7.2): does not interact with PNPase; also recorded: no binding was detected

B2: RNase E 960 – 1061 R1012A: RNase E peptide with point mutation of Arg1012 to alanine (peptide)
chain: VVETAEVVVAEPEVVAQPAAPVVAEVAAEVETVAAVEPEVTVEHNHATAPMTAAPAPEYVPEAPRHSDWQRPTFAFEGKGAAGGHTATHHASAAPARPQPVE
modifications: left off: His6, N-terminal, cleaved | MBP, N-terminal, cleaved | intein, C-terminal, cleaved | choline-binding domain, C-terminal, cleaved
notes: RNase E peptide with point mutation of Arg1012 to alanine
- Kd (dissociation rate constant, point mutants and wildtype) [1]: 0.052 s⁻¹
- association rate compared to the wildtype, in words [2]: does not significantly affect the KD of the interaction and the association rate
- dissociation rate (off-rate) compared to the wildtype, in words [2]: faster off-rate; also recorded: faster dissociation rate
- effect on KD / binding compared to the wildtype, in words [2]: does not significantly affect the KD of the interaction

B3: RNase E 960 – 1061 R1056A: RNase E peptide with point mutation of Arg1056 to alanine (peptide)
chain: VVETAEVVVAEPEVVAQPAAPVVAEVAAEVETVAAVEPEVTVEHNHATAPMTRAPAPEYVPEAPRHSDWQRPTFAFEGKGAAGGHTATHHASAAPAAPQPVE
modifications: left off: His6, N-terminal, cleaved | MBP, N-terminal, cleaved | intein, C-terminal, cleaved | choline-binding domain, C-terminal, cleaved
notes: RNase E peptide with point mutation of Arg1056 to alanine
- Kd (dissociation rate constant, point mutants and wildtype) [1]: 0.045 s⁻¹
- KD change compared to the wildtype [2]: roughly 13 fold
- association rate compared to the wildtype, in words [2]: ten-fold slower
- dissociation rate (off-rate) compared to the wildtype, in words [2]: faster off-rate

B4: RNase E 960 – 1061 R1012AR10546A: RNase E peptide with mutation of both Arg1012 and Arg1056 to alanine (peptide)
chain: VVETAEVVVAEPEVVAQPAAPVVAEVAAEVETVAAVEPEVTVEHNHATAPMTAAPAPEYVPEAPRHSDWQRPTFAFEGKGAAGGHTATHHASAAPAAPQPVE
modifications: left off: His6, N-terminal, cleaved | MBP, N-terminal, cleaved | intein, C-terminal, cleaved | choline-binding domain, C-terminal, cleaved
notes: RNase E peptide with mutation of both Arg1012 and Arg1056 to alanine
- Kd (dissociation rate constant, point mutants and wildtype) [1]: 0.12 s⁻¹
- KD range in words (double mutant) [1]: low micromolar range
- association rate compared to R1056A, in words (SPR, double mutant vs slowest-binding single mutant (R1056A)): ten-fold slower
- association rate compared to the wildtype, in words [2]: about two orders of magnitude slower
- dissociation rate (off-rate) compared to the wildtype, in words [2]: faster off-rate
- effect on KD / binding compared to the wildtype, in words (SPR, mutant vs wildtype RNase E 960–1061, listed as R1012AR1056A): significant decrease in binding; also recorded: significantly affected the binding to PNPase
